The record followed here is article PMC7697860.

The target in experiment [1] is PfPV1 with Strep-tag at the C-terminus (PfPV1-Strep) (Plasmodium falciparum 3D7). Nature of the experiment: negative-stain electron microscopy with 2D classification.
For experiment [2] the target is unchanged. Nature of the experiment: AUC.
For experiment [3] the target is unchanged. Nature of the experiment: native gel or EMSA. (Mobility shift assays separate free from complexed probe on a gel.)
Experiment [4] shares this target. Nature of the experiment: […] (pH 6.8), 200 mM NaCl, 0.5 mL/min.

“And” between values parts separate entries of the source, which are not always exact repeats. Equal entries are not always repeated.

The stoichiometry N is a count of units in the complex or per binding partner. In the case of “PfPV1 with Strep-tag at the C-terminus (PfPV1-Strep) (natural protein)”, the stoichiometry N in experiment [1] worked out at 4. Also, in experiment [2], the stoichiometry N was 4 and 3 and 2; the weight fraction w of the component assigned to the tetramer (A4, 222 kDa) came out at 24%; the weight fraction w of the component assigned to the tetramer (B3, 215 kDa) was 17.5%; the weight fraction w of the component assigned to the trimer (A3, 139 kDa) was 6.8%. This substance returned a weight fraction w of the component assigned to the trimer (B2, 141 kDa) in experiment [2] of 48.1%. Also, in experiment [3], the stoichiometry N amounted to 3. In experiment [4], the stoichiometry N is 4 and 3.
